From patent US20240199758A1, “METHOD FOR ALLOWING IMMUNE CELLS INFILTRATION IN TUMORS” (Alethia Biotherapeutics Inc., priority 2021, published 2024)
Values joined by “and” are separate entries in the source; they are usually repeats but may differ in a detail not shown here. Equal entries are not always repeated. “Also recorded” adds a separate entry of the source.

Legend:
[1] = Phase I study AB-16B5-101: safety and tolerability
Protocol: The dose escalation was performed using 2 dose escalation schemes; the accelerated dose escalation scheme and the standard dose escalation scheme. Only 1 subject was enrolled in each of the first 2 cohorts as per protocol (accelerated dose escalation scheme).
Subjects received AB-16B5 by a 60-minute IV infusion once weekly on Days 1, 8 and 15 of each cycle of treatment.

[2] = Non-clinical pharmacokinetics, single and repeat-dose studies in rats; format: in vivo, Sprague-Dawley rats
Text: There was an approximate 70% increase in systemic exposure following repeated dosing from Day 1 to Day 26 which is consistent with the elimination half-life of AB-16B5 and the dosing intervals. […] The sCLU concentrations were generally back to their baseline levels after 3 to 5 days. The concurrent decrease in sCLU concentrations immediately following dosing with AB-16B5 is consistent with an antigen-sink phenomenon.

[3] = Non-clinical toxicity, weekly administration in monkeys
[4] = rhesus monkey, in vivo
[5] = system: frozen Sprague-Dawley rat tissues; assay: Tissue cross-reactivity study, Sprague-Dawley rat tissues; format: binding; settings: Sprague-Dawley rat tissue panel, 2 and 10 μg/mL
Protocol: (§1) In addition, a tissue cross-reactivity study was conducted to determine the potential cross-reactivity of AB-16B5 with frozen tissues from human, Rhesus monkey, and Sprague-Dawley rat tissues.

human tumor biopsies = assay: Human tumor biopsies of patients treated with AB-16B5 as single agent (hematoxylin and eosin); format: in vivo; settings: on-treatment biopsy after the second cycle
Protocol: In parallel human tumor biopsies of patients treated with AB-16B5 as single agent were analyzed (FIGS. 2B-2E). Needle biopsies obtained from a patient with metastatic thyroid cancer and form a patient with inoperable metastatic gastric cancer were sectioned and stained with hematoxylin and eosin. An on-treatment biopsy from a patient with thyroid cancer metastasic to the lungs was obtained after the second cycle treatment with AB-16B5. […] Hemosiderin-laden macrophages were observed inside necrotic areas some reflecting red blood cell extravasation associated with necrosis (not shown).

[6] = system: frozen tissues from human; assay: Tissue cross-reactivity study, human tissues; format: binding; settings: human tissue panel, 2 and 10 μg/mL
Protocol: as §1

[7] = thyroid cancer metastatic to the lungs, FIG. 2B

With “AB-16B5: humanized IgG2 monoclonal antibody targeting sCLU for the inhibition of cancer-associated EMT; light chain SEQ ID NO:11, heavy chain SEQ ID NO:12” the “dose-related trend in the incidence of AEs” value ([1]; 1.5 to 12.0 mg/kg) was “no dose-related trend”, the dose-limiting toxicity ([1]; 1.5 to 12.0 mg/kg once weekly, 15 subjects) was “No dose-limiting toxicity was observed; also recorded: No dose-limiting toxicities were identified” and the “subjects reporting SAEs” value ([1]; 5 of 15 subjects) was 33%. For the same substance, the “AEs of Grade 3 to 5” value ([1]; 15 subjects) was 12, the “number of SAEs” value ([1]; 15 subjects) was 6 and 5 and the “subjects reporting AEs of Grade 3 to 5” value ([1]; 15 subjects) was 8 subjects. The “total AEs reported” value ([1]; 15 subjects, all causalities) was 167, the safety and tolerability ([1]; 60-minute IV weekly infusion, doses up to 12 mg/kg) was “safe and well tolerated” and the “AEs of Grade 3 to 5 related to AB-16B5” value ([1]; Grade 3 infusion related reaction and Grade 3 rash) was 2. The deaths ([1]; Subjects 004 and 014, associated with progression of the disease) was “Two deaths were reported”, the “grade of drug-related AEs” value ([1]; in vivo) was “mainly of Grade 1 or 2” and the “most frequently reported AEs (all causalities)” value ([1]; in vivo) was “nausea, abdominal pain, back pain, vomiting, chills, dyspnea, constipation and pruritus”. The “most frequently reported AEs related to AB-16B5” value ([1]; in vivo) was “nausea, pruritus, headache and rash”, the “relation of SAEs to AB-16B5” value ([1]; in vivo) was “All SAEs were considered unrelated to AB-16B5; also recorded: none of which were judged related to the study treatment” and the “AEs related (possibly, probably or definitely) to AB-16B5” value ([1]; out of 167 AEs) was 68. For the same substance, the “subjects who discontinued the study due to an adverse event” value ([1]; two subjects (004 and 011)) was 13%, the “systemic exposure over 24 hours versus dose” value [2] was “increased with increasing dose levels in a dose proportional manner” and the “increase in systemic exposure following repeated dosing” value ([2]; Day 1 to Day 26) was roughly 70%. The “peak serum AB-16B5 concentrations” value ([2]; infusion, single and repeat-dose) was “reached shortly after the start of infusion”, the “mean albumin, globulin, A/G and phosphorus levels” value ([3]; monkeys, 20, 60 and/or 100 mg/kg) was “Slight changes” and the NOAEL ([3]; monkeys, weekly administration) was 100 mg/kg/dose. For the same substance, the emesis during infusion [4] was “Few episodes of emesis”, the “signs of overt toxicity” value [4] was “did not result in any signs of overt toxicity” and the “treatment-related effects on body weight, ophthalmology, electrocardiography and organ weight” value [4] was “no treatment-related effects”. The “animals with hepatocellular vacuolation in the liver” value ([4]; 100 mg/kg) was 2 animals, the “AB-16B5 staining of tissue elements” value [5] was “observed in a number of tissue elements” and the membrane staining [5] was “no membrane staining was observed”. The “immune infiltrate in tumor fragments” value (human tumor biopsies; metastatic gastric cancer, FIG. 2E) was “infiltrated by a mix neutrophilic and mononucleated immune cells infiltrate”, the “immune infiltrate in tumor fragment” value (human tumor biopsies; [7]) was “A lymphoplasmacytic infiltrate was observed along the edge of the fragment” and the “necrosis of tumor fragments” value (human tumor biopsies; [7]) was “essentially all tumor fragments were necrotic”. For the same substance, the “AB-16B5 staining of tissue elements” value [6] was “observed in a number of tissue elements” and the membrane staining [6] was “no membrane staining was observed”.
